Data taken from article PMC3785425.
pKd: −log10 of the molar value.

Experiments:
[1] = target: NKTT120 (human (humanized antibody)); assay: SPR; Biacore 3000; NKTT120 immobilised on the chip; FcγRI, FcγRIIIa or C1q as analyte at six different concentrations; BiaEvaluation software
[2] = target: NKTT120 (human (humanized antibody))

Chain of NKTT120 (human (humanized antibody)) (heavy, as listed by the source, chain 1 of 2): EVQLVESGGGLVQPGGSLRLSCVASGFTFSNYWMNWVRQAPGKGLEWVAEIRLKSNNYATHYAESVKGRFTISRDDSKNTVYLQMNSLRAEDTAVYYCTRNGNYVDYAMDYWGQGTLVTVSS
Chain of NKTT120 (human (humanized antibody)) (light, as listed by the source, chain 2 of 2): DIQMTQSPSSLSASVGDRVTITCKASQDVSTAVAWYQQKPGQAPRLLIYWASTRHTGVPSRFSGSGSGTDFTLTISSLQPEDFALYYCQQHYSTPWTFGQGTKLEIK
Chain of FcγRIIIa (P08637 17-254): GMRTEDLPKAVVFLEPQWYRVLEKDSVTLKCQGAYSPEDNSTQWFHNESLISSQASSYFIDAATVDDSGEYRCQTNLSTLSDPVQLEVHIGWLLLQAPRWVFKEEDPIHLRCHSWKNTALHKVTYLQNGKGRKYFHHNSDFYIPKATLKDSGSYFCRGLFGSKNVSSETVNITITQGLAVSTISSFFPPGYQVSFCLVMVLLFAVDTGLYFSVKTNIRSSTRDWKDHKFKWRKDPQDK
Chain of FcγRI (P12314 16-374): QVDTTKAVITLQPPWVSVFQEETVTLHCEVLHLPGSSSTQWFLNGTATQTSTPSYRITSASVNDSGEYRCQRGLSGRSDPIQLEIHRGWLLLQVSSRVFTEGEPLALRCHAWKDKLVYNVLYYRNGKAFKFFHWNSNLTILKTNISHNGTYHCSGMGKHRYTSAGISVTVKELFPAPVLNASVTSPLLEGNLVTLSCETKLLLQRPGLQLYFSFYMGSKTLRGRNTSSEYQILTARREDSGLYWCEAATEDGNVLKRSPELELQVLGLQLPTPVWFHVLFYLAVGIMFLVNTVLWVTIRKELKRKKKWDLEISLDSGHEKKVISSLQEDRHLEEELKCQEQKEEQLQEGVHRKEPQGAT

pKd [1] | Substance | ADCC, cell killing of iTCR-expressing target cells by CD16-transduced NK-92 effector cells (E:T 60:1), NKTT120 at 1 and 20 µg/ml (34% to 44%) [2] [%]
7.92 | FcγRI (from UniProt P12314 16-374) (receptor) | –
6.91 | FcγRIIIa (from UniProt P08637 17-254) (receptor) | 44
